Experimental data published in patent publication US20100210517A1 (RAPTOR PHARMACEUTICAL, published 2010).

T1: LRP2 CR2728 (human, UniProt P98164 3552-3631)
T1 construct: domain: CR2728; Its cloning is not described in the methods; not shown: N-terminal hexahistidine and S-peptide tags of pET30(+)a
T1 sequence (looked up): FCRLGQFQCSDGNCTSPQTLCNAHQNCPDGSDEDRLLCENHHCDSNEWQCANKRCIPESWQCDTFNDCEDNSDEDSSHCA

T2: MAT CR12 (human, UniProt Q9Y5Y6 452-524)
T2 construct: also called ST14 CR12; matriptase CR12
T2 sequence: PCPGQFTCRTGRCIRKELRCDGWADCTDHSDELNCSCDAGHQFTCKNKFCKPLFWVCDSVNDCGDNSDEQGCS


Assays:
[1] = biological target: T3, 8D6 CR12 (CR pair from FDC-8D6 antigen, CD320) (human, UniProt Q9NPF0 53-168); test: solid-phase assay on the coated FDC-8D6 antigen CR pair, relative binding
T3 construct: also called FDC-8D6 antigen pair; target CR pair from FDC-8D6 antigen; not shown: N-terminal hexahistidine and S-peptide tags of pET30(+)a
T3 sequence (Q9NPF0 other isoform, or with tags, fused parts or gaps): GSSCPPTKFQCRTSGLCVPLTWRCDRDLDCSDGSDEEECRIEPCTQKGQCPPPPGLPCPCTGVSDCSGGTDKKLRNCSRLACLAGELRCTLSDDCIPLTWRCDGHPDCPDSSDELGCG

LRP2 CR89 = biological target: T4, LRP2 CR89 (human, UniProt P98164 1025-1102); test: solid-phase assay on coated CR protein, each ligand at 80 nM, blank-corrected absorbance
T4 construct: domain: CR89; also called YVWR; L2 CR89; not shown: N-terminal hexahistidine and S-peptide tags of pET30(+)a
T4 sequence (P98164 1025-1102): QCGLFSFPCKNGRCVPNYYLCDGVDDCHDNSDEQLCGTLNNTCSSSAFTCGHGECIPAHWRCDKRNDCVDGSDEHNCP
Protocol: (§1) Samples were tested twice, in duplicate, and values combined. Means and standard deviations were then calculated. Blank values obtained from wells incubated in the absence of ligand were used to correct absorbance data.
(§2) Solid phase binding assays-Purified, refolded CR protein (1 μg) was bound to Nunc Maxisorp™ 96-well plates in TBS pH 8 supplemented with 5 mM CaCl₂ (TBSC) overnight at 4° C. Wells were washed with TBSC and then blocked with TBSC containing 2% bovine serum albumin (BSA). […] Control wells contained no added ligand. As an additional control, to determine whether the absence of calcium affected binding, 10 mM EGTA was included in the incubation medium for some samples. […] Excess primary antibody was removed and wells washed before incubation with the secondary antibody, HRP-conjugated goat anti rabbit IgG (Bio-Rad). After washing, TMB substrate solutions (Bio-Rad) were added to detect HRP. Color development was stopped with 1N HCl. Absorption at 450 nm was measured with a microplate spectrophotometer (Molecular Devices). Data were plotted and Kd values derived by non-linear regression with the assumption of single-site binding (GraphPad Prism).

LRP2 CR3536 = biological target: T5, LRP2 CR3536 (human, UniProt P98164 3882-3963); test: as above
T5 construct: domain: CR3536; not shown: N-terminal hexahistidine and S-peptide tags of pET30(+)a
T5 sequence (P98164 3882-3963): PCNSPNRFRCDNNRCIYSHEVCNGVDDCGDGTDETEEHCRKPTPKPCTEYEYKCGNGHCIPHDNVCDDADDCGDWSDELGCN
Protocol: as §1, §2

LRP2 CR34-36 = biological target: T6, LRP2 CR34-36 (human, UniProt P98164 3841-3963); test: as above
T6 construct: domain: CR34-36; not shown: N-terminal hexahistidine and S-peptide tags of pET30(+)a
T6 sequence (P98164 3841-3963): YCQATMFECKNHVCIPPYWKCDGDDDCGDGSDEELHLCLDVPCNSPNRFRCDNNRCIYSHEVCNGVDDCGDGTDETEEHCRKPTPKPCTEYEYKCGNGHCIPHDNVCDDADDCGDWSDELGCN
Protocol: as §1, §2

LRP2 CR2728 = biological target: T1, LRP2 CR2728; test: as above
Protocol: as §1, §2

LRP2 CR3031 = biological target: T7, LRP2 CR3031 (human, UniProt P98164 3677-3755); test: as above
T7 construct: domain: CR3031; Its cloning is not described in the methods; not shown: N-terminal hexahistidine and S-peptide tags of pET30(+)a
T7 sequence (P98164 3677-3755): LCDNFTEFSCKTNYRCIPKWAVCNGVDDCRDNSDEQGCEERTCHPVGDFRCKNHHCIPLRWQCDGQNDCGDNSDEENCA
Protocol: as §1, §2

MAT CR12 = biological target: T2, MAT CR12; test: binding of truncated MatRAP1 forms to MAT CR12, relative signal under isomolar conditions
Protocol: as §2

[2] = biological target: T3, 8D6 CR12 (CR pair from FDC-8D6 antigen, …); test: solid-phase binding assay, CR protein coated on plate
Protocol: Control wells contained no added ligand. As an additional control, to determine whether the absence of calcium affected binding, 10 mM EGTA was included in the incubation medium for some samples. […] Excess primary antibody was removed and wells washed before incubation with the secondary antibody, HRP-conjugated goat anti rabbit IgG (Bio-Rad). After washing, TMB substrate solutions (Bio-Rad) were added to detect HRP. Color development was stopped with 1N HCl. Absorption at 450 nm was measured with a microplate spectrophotometer (Molecular Devices). Data were plotted and Kd values derived by non-linear regression with the assumption of single-site binding (GraphPad Prism).

[3] = biological target: T8, recombinant human LRP1 ligand binding cluster II (amino acids 786-1165, C-terminal Fc) (human); test: competition ELISA, inhibition of RAP d3 (2 nM) binding to coated LRP1 cluster II-Fc
T8 construct: range 786-1165; Bought from R&D Systems, NS0-expressed; also called rhLRP1 cluster II; hrLRP1 cluster II
T8 sequence (Q07954 786-1165): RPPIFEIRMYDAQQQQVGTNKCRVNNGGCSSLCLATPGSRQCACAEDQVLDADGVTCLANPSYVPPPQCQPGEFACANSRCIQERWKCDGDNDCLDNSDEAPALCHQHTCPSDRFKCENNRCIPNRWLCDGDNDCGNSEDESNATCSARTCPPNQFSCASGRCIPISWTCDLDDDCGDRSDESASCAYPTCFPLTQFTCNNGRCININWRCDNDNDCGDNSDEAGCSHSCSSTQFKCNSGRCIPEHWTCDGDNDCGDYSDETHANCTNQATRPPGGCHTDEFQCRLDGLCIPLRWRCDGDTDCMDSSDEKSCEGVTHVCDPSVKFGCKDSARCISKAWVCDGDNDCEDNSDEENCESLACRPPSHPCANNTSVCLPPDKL
Protocol: (§3) Solid phase binding assays were performed using recombinant human LRP1 cluster II (amino acids 786-1165, with C-terminal Fc tag, 1 μg, R&D Systems, Minneapolis, Minn.) to coat Nunc MAXISORP™ 96-well plates in TBS pH 8 supplemented with 5 mM CaCl₂ (TBSC) overnight at 4° C. Data was generated by ELISA assay. Wells were washed with TBSC and blocked with TBSC containing 2% BSA. […] Control wells contained no added inhibitor. Wells were washed with TBS supplemented with 5 mM CaCl₂ and 0.05% Tween-20. Bound ligand was detected with either anti-S-peptide-HRP conjugate (Abcam, Cambridge, Mass.), anti-α-2-macroglobulin-HRP or anti-PAI-1-HRP. Excess HRP conjugate was removed and wells washed. Color was developed using TMB reagents (BioRad, Hercules, Calif.). Absorption at 450 nm was measured with a microplate spectrophotometer (Molecular Devices, Palo Alto, Calif.).

[4] = biological target: T8, recombinant human LRP1 ligand binding …; test: solid-phase binding assay, receptor coated on plate, streptavidin-HRP detection, EDTA-subtracted
Protocol: (§4) Solid phase binding assays were carried out as follows. Recombinant murine VLDLR ectodomain (aa 1-798, C-terminal hexahistidine, 1 μg) or rhLRP1 cluster II (aa 786-1165, C-terminal Fc, 1 μg) were bound to Nunc Maxisorp™ 96-well plates in TBS pH 8 supplemented with 5 mM CaCl₂ (TBSC) overnight at 4° C. Wells were washed with TBSC and then blocked with TBSC containing 2% BSA. Peptides were then incubated with the immobilized receptor at a range of concentrations for 2 hours in the above blocking buffer supplemented with 0.05% Tween-20 at room temperature. Identical binding reactions were done in the presence of 50 mM EDTA to provide a measure of non-specific binding. Control wells contained no added peptide. […] Excess streptavidin-HRP or primary antibody was removed and wells washed before incubation with the secondary antibody, when necessary, HRP-conjugated goat anti rabbit IgG (Bio-Rad). Color was developed using TMB reagents (BioRad). Absorption at 450 nm was measured with a microplate spectrophotometer (Molecular Devices). Absorption obtained in the presence of EDTA was subtracted from absorption obtained in the presence of calcium prior to analysis. Data were plotted and Kd values derived by non-linear regression with the assumption of single-site binding (GraphPad Prism).

[5] = biological target: T9, recombinant mouse VLDLR ectodomain (amino acids 1-798, C-terminal hexahistidine) (mouse, UniProt P98156 28-798); test: as above
T9 construct: range 1-798; Bought from R&D Systems, NS0-expressed; The printed range starts at 1 and so may count a signal peptide; also called rmVLDLR ectodomain; mVLDLR
T9 sequence (P98156 other isoform, or with tags, fused parts or gaps limits assumed, form in doubt): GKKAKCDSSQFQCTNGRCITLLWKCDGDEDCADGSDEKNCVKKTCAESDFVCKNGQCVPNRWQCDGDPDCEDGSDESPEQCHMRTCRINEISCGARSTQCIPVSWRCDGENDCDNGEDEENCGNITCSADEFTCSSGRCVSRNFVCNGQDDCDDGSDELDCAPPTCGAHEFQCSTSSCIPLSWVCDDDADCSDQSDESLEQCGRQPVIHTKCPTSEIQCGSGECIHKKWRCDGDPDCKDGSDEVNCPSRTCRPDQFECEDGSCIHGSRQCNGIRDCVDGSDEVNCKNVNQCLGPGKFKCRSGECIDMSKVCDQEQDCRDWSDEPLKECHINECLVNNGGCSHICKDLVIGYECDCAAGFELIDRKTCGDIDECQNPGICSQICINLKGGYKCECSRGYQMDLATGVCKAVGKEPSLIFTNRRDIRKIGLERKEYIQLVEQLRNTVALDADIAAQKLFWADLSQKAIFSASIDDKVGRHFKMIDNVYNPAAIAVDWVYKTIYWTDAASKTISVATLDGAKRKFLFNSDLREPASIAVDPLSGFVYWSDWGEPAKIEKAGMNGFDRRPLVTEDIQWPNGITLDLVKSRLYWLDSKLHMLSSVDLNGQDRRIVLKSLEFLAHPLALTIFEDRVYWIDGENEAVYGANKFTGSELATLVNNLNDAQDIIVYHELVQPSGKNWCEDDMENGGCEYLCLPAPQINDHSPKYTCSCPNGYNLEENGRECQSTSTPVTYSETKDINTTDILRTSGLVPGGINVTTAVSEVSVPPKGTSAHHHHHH
Protocol: as §4

[6] = biological target: T8, recombinant human LRP1 ligand binding …; test: inhibitor pre-incubated with coated LRP1 cluster II-Fc, washed, then RAP d3 added; inhibition of RAP d3 binding
Protocol: as §3

[7] = biological target: T8, recombinant human LRP1 ligand binding …; test: competition ELISA on coated LRP1 cluster II-Fc; competitor called the heterologous ligand (FIG. 14C; the figure legend names uPA-PAI-1)
Protocol: as §3

Binder | binding result (LRP2 CR89) | binding result (LRP2 CR3536) | binding result (LRP2 CR34-36) | binding result (LRP2 CR2728) | binding result (LRP2 CR3031) | Kd [4] | Kd [5] | other results
320RAP1 (full-length d3 variant) (ligand, Selected by phage panning on the CR pair of FDC-8D6 antigen; not shown: N-terminal hexahistidine and S-peptide tags of pET30(+)a) LDRLRRVSHQGYSTEAEFEEPRVIDLWDLAQSANLTDKELEAFREELKHFEAKIESHNHYQKQLEIAHESMRHAESVGYGERMSRSREKHALLEGRTKELGYTVTMHLQDLSGRISRAR |  |  |  |  |  |  |  | EC50 (read off the curve) [1]: ~7 nM
MatRAP1 d3 (ligand, Selected by phage panning on MAT CR23; also called RAP vMA; not shown: N-terminal hexahistidine and S-peptide tags of pET30(+)a) LDRLRRVSHQGYSTEAEFEEPRVIDLWDLAQSANLTDKELEAFREELKHFGAKIERHNHYQKQLEIAHEWLRHAESVGDGERVSRSREKHALLEGRTKELGYTVKKHLQDLSGRISRAR | no binding (tested: 80 nM) | no binding (tested: 80 nM) | no binding (tested: 80 nM) | no binding (tested: 80 nM) | no binding (tested: 80 nM) |  |  | fnctn (relative binding signal under isomolar conditions) (MAT CR12): 0.22
MatRAP2 d3 (ligand, Selected by phage panning on MAT CR34; also called RAP vMB; not shown: N-terminal hexahistidine and S-peptide tags of pET30(+)a) LDRLRRVSHQGYSTEAEFEEPRVIDLWDLAQPANLTDKGLEAFREGLKHFLAKIEPHNHYQKQLETVREPLRYAESVGDGERVSRSHEKYALLEGRTRELGYTVKKHLQDLFGRISRAR | no binding (tested: 80 nM) | no binding (tested: 80 nM) | no binding (tested: 80 nM) | no binding (tested: 80 nM) | no binding (tested: 80 nM) |  |  | 
320RAP1 truncated variant (identical truncations as MatRAP1, amino acids 243-313) (ligand, also called truncated form of 320RAP1; not shown: N-terminal hexahistidine and S-peptide tags of pET30(+)a) FREELKHFEAKIESHNHYQKQLEIAHESMRHAESVGYGERMSRSREKHALLEGRTKELGYTVTMHLQDLSG |  |  |  |  |  |  |  | fold improvement in affinity against the full-length variant [2]: 3.5 fold
mRAPc (N-terminal biotin-GGSGG; intramolecular disulfide between C241 and C315 (mature RAP numbering), Synthetic; also called mRAPc peptide; monomeric peptide) peptide: CGFREELKHFEAKIEKHNHYQKQLEIAHEKLRHAESVGDGERVSRSREKHALLEGRTKELGYTVKKHLQDLSGGC |  |  |  |  |  | 10 nM | 5 nM | EC50 [3]: 32 nM; EC50 [6]: 17 nM; EC50 [7]: 7 nM
tag-free RAP d3 peptide (amino acids 201-319 of mature human RAP, C-terminal cysteine linked to biotin) (ligand, C-terminal cysteine linked to maleimide-PEO2-biotin, Bacterially expressed, from GeneScript; lacks HNEL; also called full-length RAP d3) LDRLRRVSHQGYSTEAEFEEPRVIDLWDLAQSANLTDKELEAFREELKHFEAKIEKHNHYQKQLEIAHEKLRHAESVGDGERVSRSREKHALLEGRTKELGYTVKKHLQDLSGRISRARC |  |  |  |  |  | 8 nM | 1 nM | 
